To fix the notation:
T1: ECD of murine IGSF11, recombinant biotinylated (mouse, UniProt P0C673 23-240)
T1 construct: whole entry named; also called Mouse IGSF11
T1 sequence: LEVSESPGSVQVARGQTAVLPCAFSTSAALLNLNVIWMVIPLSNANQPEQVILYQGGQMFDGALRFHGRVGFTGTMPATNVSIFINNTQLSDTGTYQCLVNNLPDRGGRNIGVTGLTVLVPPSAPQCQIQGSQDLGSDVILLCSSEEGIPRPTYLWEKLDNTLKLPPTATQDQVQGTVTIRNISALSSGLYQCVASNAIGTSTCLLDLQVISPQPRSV

T2: full-length ECD of human IGSF11 fused to murine Fc (human, UniProt Q5DX21 23-241)
T2 construct: also called Fc-fusion IGSF11 ECD; not shown: murine Fc
T2 sequence: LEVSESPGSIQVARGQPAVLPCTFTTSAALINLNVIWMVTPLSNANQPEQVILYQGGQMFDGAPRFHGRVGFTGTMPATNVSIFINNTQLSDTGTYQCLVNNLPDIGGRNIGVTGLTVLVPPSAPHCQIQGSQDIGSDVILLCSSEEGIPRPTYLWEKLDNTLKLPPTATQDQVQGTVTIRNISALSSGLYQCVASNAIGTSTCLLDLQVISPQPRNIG

T3: IgV domain of human IGSF11 fused to murine IgG2a Fc (human, UniProt Q5DX21 23-143)
T3 construct: not shown: murine IgG2a Fc-region
T3 sequence: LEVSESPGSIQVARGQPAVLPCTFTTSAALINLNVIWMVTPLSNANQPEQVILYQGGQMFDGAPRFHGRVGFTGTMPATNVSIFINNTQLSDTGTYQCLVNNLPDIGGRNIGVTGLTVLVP

T4: extracellular domain (ECD) of human IGSF11 (VSIG3), recombinant (human, UniProt Q5DX21 23-241)
T4 construct: biotinylated where captured on streptavidin; tags of the reagent not always stated; also called IGSF11 (ECD domain); ECD-IGSF11
T4 sequence: T2 sequence

T5: human IGSF11 (VSIG3) ECD, His-tagged (human, UniProt Q5DX21 23-241)
T5 construct: in part bought (SinoBiological 13094-H08H); also called HIS-IGSF11; IGSF11-HIS; not shown: His tag
T5 sequence: T2 sequence

T6: human IGSF11 (VSIG3) expressed on cells (human, UniProt Q5DX21 23-431)
T6 sequence: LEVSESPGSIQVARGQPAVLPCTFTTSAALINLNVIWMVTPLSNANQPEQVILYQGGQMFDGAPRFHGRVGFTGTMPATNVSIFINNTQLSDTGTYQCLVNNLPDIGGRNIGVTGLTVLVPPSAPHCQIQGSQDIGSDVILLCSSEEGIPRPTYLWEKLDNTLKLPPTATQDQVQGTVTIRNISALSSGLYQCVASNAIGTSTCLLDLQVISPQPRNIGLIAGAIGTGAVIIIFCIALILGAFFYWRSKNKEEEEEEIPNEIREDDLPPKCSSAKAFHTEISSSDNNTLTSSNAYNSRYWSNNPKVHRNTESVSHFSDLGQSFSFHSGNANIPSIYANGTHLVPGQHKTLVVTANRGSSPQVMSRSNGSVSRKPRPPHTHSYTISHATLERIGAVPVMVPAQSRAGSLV

B1: C-021 (Fab format) (Fab, V domains shown)
VH: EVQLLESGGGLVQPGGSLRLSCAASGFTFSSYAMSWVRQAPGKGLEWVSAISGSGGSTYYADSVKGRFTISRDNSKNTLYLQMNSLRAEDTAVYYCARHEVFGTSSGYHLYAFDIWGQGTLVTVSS
VL: DIQMTQSPSSLSASVGDRVTITCRASQSISSYLNWYQQKPGKAPKLLIYAASSLQSGVPSRFSGSGSGTDFTLTISSLQPEDFATYYCQQWSGLPLTFGQGTKVEIK
notes: Fab from E. coli lysate
B2: C-023 (Fab format) (Fab, V domains shown)
VH: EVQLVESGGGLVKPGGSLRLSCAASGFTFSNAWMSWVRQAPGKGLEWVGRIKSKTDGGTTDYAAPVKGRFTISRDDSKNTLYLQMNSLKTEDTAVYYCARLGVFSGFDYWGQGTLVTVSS
VL: SYELTQPPSVSVSPGQTASITCSGDKLGDKYASWYQQKPGQSPVLVIYQDSKRPSGIPERFSGSNSGNTATLTISGTQAEDEADYYCHTWTHHSLAVVFGGGTKLTVL
notes: Fab from E. coli lysate
B3: C-015 (Fab format) (Fab, V domains shown)
VH: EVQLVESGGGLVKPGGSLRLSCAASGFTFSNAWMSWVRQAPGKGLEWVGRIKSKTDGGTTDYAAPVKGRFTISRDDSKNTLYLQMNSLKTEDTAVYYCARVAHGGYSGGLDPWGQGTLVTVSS
VL: B2 VL with H88S, T89S, W90T, T91G, H92T, H93A, S94H, L95T, A96L, V97A
notes: Fab from E. coli lysate
B4: C-008 (IgG1 format) (antibody, V domains shown)
VH: EVQLLESGGGLVQPGGSLRLSCAASGFTFSSYAMSWVRQAPGKGLEWVSAISGSGGSTYYADSVKGRFTISRDNSKNTLYLQMNSLRAEDTAVYYCTTDNGHNRDWGQGTLVTVSS
VL: ASVLTQPPSVSAAPGQKVTISCSGSSSNIGNNYVSWYQQLPGTAPKLLIYDNNKRPSGIPDRFSGSKSGTSATLGITGLQAEDEADYYCGTWTRSSGVFGGGTKLTVL
B5: C-026 (IgG1 format) (antibody, V domains shown)
VH: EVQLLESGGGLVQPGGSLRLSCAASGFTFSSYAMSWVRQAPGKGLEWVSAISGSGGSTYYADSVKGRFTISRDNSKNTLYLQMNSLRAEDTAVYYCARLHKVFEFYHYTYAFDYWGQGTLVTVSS
VL: ASVLTQPPSVSAAPGQKVTISCSGSSSNIGNNYVSWYQQLPGTAPKLLIYDNNKRPSGIPDRFSGSKSGTSATLGITGLQAEDEADYYCASYSSETSGWVFGGGTKLTVL
B6: C-024 (IgG1 format) (antibody, V domains shown)
VH: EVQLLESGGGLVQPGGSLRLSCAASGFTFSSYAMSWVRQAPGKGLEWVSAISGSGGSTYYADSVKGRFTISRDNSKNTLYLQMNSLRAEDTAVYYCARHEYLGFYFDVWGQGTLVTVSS
VL: B2 VL with H88L, T89A, W90S, T91H, H92R, H93L, S94T, A96N, V97Y
B7: C-009 (IgG1 format) (antibody, V domains shown)
VH: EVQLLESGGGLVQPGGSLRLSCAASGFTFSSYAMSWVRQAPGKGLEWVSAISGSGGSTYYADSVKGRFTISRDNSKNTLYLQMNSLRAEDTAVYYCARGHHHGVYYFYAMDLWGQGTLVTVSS
VL: B2 VL with H88Q, T89S, W90Y, T91S, H92G, H93S, L95T, A96L, V97H
B8: C-025 (IgG1 format) (antibody, V domains shown)
VH: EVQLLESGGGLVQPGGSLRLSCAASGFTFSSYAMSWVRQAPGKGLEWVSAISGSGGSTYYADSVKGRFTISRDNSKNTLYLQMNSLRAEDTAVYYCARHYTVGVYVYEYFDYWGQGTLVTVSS
VL: SYELTQPPSVSVSPGQTASITCSGDKLGDKYASWYQQKPGQSPVLVIYQDSKRPSGIPERFSGSNSGNTATLTISGTQAEDEADYYCQSYATAGFVFGGGTKLTVL
B9: A-015 (scFv format) (scFv, V domains shown)
VH: not shown
VL: QPVLTQSPSASASLGASVKLTCTLSSGHTNYAIAWRQQQPGKAPRYLMLLNSDGSHTRGGGIPDRFSGSSSGAERYLTISSLQSEDEADYYCMIWHNNAWVFGGGTKLAVL
notes: scFv
B10: A-010 (scFv format) (scFv, V domains shown)
VH: QVQLVQSGAEVKKPGASVKVSCKASGYTFTSYGISWVRQAPGQGLEWMGWISAYNGNTNYAQKLQGRVTMTTDTSTSTAYMELRSLRSDDTAVYYCARVPAWSGQFDYWGQGTLVTVSS
VL: QSALTQPASVSGSPGQSITISCTGSSSDVGGYNYVSWYQQYPGKAPKLMIYDVRSRPSGVSNRFSGSKSGNTASLTISGLQAEDEADYYCTSYTSSNTLVIFGGGTKVTVL
notes: scFv
B11: A-006 (scFv format) (scFv, V domains shown)
VH: EVQLVESGGGLIQPGGSLRLSCAASGFTVSSNYMSWVRQAPGKGLEWVSVIYSGGSTYYADSVKGRFTISRDNSKNTLYLQMNSLRAEDTAVYYCARGNPYYYGDLQVNFDYWGQGTLVTVSS
VL: QAVVTQEPSLTVSPGGTVTLTCASSTGAVTSGYYPNWFQQKPGQAPRPLIYSTSNKHSWTPARFSGSLLGGKAALTLSGVQPDDEAEYYCLLYYGGDWVFGGGTKLTVL
notes: scFv
B12: A-012 (scFv format) (scFv, V domains shown)
VH: B11 VH with V5L, A24V
VL: B11 VL with P48A, D83E, D97A
notes: scFv
B13: A-013 (scFv format) (scFv, V domains shown)
VH: B11 VH
VL: B11 VL with G32A, P48A, D83E, E87D, D97A
notes: scFv
B14: A-007 (scFv format) (scFv, V domains shown)
VH: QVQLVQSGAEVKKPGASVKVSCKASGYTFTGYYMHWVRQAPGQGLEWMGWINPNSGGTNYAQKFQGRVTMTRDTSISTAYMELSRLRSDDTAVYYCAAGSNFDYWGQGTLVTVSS
VL: QSALTQPASVSGSPGQSITIACTGSSSDIGSFSYVSWYQQRPGKAPTLIIYGVNNRPLGVSRRFSGSKSGNTASLSISGLQAEDEADYYCSSYTRRSTVIFGGGTKLTVL
notes: scFv
B15: A-001 (IgG1 format) (antibody, V domains shown)
VH: EVQLVESGGGLVKPGGSLRLSCAASGFTFSSYSMNWVRQAPGKGLEWVSSISSSSSYIYYADSVKGRFTISRDNAKNSLYLQMNSLRAEDTAVYYCVRSIIVQALGITSVFDIWGQGTMVTVSS
VL: AIRLTQSPSSLSASVGDRVTISCRASQIISNHLNWYQQKPGKAPKLLIYAASRLQTGVPSRFSGSGSETDYTLTISSLQPEDFATYYCQQSYSNPRTFGHGTKVEIK
notes: human IgG1 format
B16: A-016 (IgG1 format) (antibody, V domains shown)
VH: QVQLQESGAEVKKPGASVKVSCKASGYTFTGYYMHWVRQAPGQGLEWMGGIIPIFGTANYAQKFQGRVTITADESTSTAYMELSSLRSEDTAVYYCAGAGMELTRSGAYYYYGMDVWGQGTTVTVSS
VL: QSALTQPASVSGSPGQSITISCTGTSSDIGGYTFVSWYQQHPGKAPKVMIHDVNNRPSGISNRFSGSKSGNTASLTISGLQAEDEADYYCSSVTSTNTYVFGTGTKVTVL
notes: human IgG1 format
B17: A-015 (IgG1 format) (antibody, V domains shown)
VH: not shown
VL: B9 VL
notes: human IgG1 format

Changes are numbered by the printed parent chain.

For one test, the target named is T1, ECD of murine IGSF11, recombinant …. The experiment in a line: Fab ELISA. For orientation: An ELISA detects its analyte on a solid surface through an enzyme-linked reagent.
Protocol: (§1) In order to identify IGSF11-specific binding ABPs, monoclonal Fabs expressed from E. coli were generated from the enriched set of anti-IGFS11 antibody-expressing phage. After bacterial lysis, the Fabs were tested for their binding properties and cross-reactivity profile on recombinant ECD-IGSF11 (human, mouse and cynomolgus monkey) by standard ELISA. Briefly, biotinylated recombinant ECD-IGSF11 from human, mouse, or cynomolgus monkey were immobilized at 2 ug/mL on a streptavidin-coated 384-well Maxisorp plate. The surface was blocked with 2% (w/v) skim milk powder in PBST. After three wash cycles with PBST, a bacterial lysate of each of the anti-IGSF11 Fabs in 2% (w/v) skim milk powder was applied to the immobilized IGSF11 and incubated for 1 h. After removing all unbound Fab by 3 wash cycles with PBST, bound Fab antibodies were detected with a goat anti-human Fab antibody conjugated with horseradish peroxidase. After three wash cycles with PBST the ELISA was developed with TMB substrate.
Turning to B1, the A450 is less than 1.
Same read-out and setting: the figure for B2 is less than 1.
The same measure, in the same setting: the figure for B3 is less than 1.

In another test the target is Streptavidin (UniProt P22629 37-163, limits assumed). The experiment in a line: Fab ELISA.
Chain of Streptavidin (P22629 37-163 limits assumed): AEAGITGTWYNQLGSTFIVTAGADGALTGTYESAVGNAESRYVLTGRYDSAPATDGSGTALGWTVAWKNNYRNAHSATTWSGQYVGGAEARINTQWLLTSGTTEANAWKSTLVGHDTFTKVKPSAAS
Protocol: as §1
B1 had an A450 of less than 0.1.
B2: the A450 was less than 0.1.
Still for that read-out and setting: to B3 belongs less than 0.1.

In a further test the target is T2, full-length ECD of human IGSF11 fused …. The experiment in a line: IgG ELISA.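 Note: ELISA binding of IgG antibodies to plate-coated IGSF11 Fc-fusion proteins (full-length ECD, IgV or IgC2 domain), detected via HRP-labelled anti-human IgG with TMB development.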
Protocol: (§2) Binding of IgG antibodies to each of the full-length ECD of IGSF11, to the IgV domain of IGSF11 and to the IgC2 domain of IGSF11, was tested in the ELISA assay as follows: briefly, recombinant domains of Fc-fusion IGSF11 proteins were coated at 2 ug/mL on a 384-well Maxisorp plate. The surface was blocked with 2% (w/v) skim milk powder in PBST. […] After removing all unbound antibodies by 3 wash cycles with PBST, bound IgG ABPs were detected with a goat anti-human IgG antibody conjugated with horseradish peroxidase. After three wash cycles with PBST the ELISA was developed with TMB substrate.
The EC50 is the concentration at which the effect is half-maximal. B4 had an EC50 of less than 1 nM.
For the molecule B5, the EC50 lay in the range of 1 to 20 nM.
The same measure, in the same setting: to B6 belongs 1 to 20 nM; to B7, 1 to 20 nM; to B8, 1 to 20 nM.

For another test, the target named is T3, IgV domain of human IGSF11 fused to …. In words: IgG ELISA.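 Note: ELISA binding of IgG antibodies to plate-coated IGSF11 Fc-fusion proteins (full-length ECD, IgV or IgC2 domain), detected via HRP-labelled anti-human IgG with TMB development.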
Protocol: as §2
Turning to B4, the EC50 was less than 1 nM.
Molecule B5 gave a concentration for a half-maximal effect (EC50) of less than 1 nM.
Take B6: the EC50 is 1 to 20 nM.
B7 came in with an EC50 of less than 1 nM.
The same measure, in the same setting: to B8 belongs less than 1 nM.

The target of another test is T4, extracellular domain (ECD) of human …. In words: ELISA RFU 0.5-1.0.
B9: the “ELISA binding signal (RFU)” value fell in the range of 0.5 to 1 rfu.
Regarding B10, the “ELISA binding signal (RFU)” value was in the range of 0.5 to 1 rfu.
For B11, the “ELISA binding signal (RFU)” value lay within 0.5 to 1 rfu.
Still for that read-out and setting: the figure for B12 is 0.5 to 1 rfu; for B13 it is 0.5 to 1 rfu; for B14 it is 0.5 to 1 rfu.

A further test deals with T1, ECD of murine IGSF11, recombinant …. The experiment in a line: ELISA RFU 0.5-1.0.
With B9, the “ELISA binding signal (RFU)” value was in the range of 0.5 to 1 rfu.
As to B10, the “ELISA binding signal (RFU)” value lay within 0.5 to 1 rfu.
Still for that read-out and setting: to B11 belongs 0.5 to 1 rfu; to B12, 0.5 to 1 rfu; to B13, 0.5 to 1 rfu.
In the case of B14, the “ELISA binding signal (RFU)” value lay within 0.5 to 1 rfu.

The target of the next test is T5, human IGSF11 (VSIG3) ECD, His-tagged. The experiment in a line: IgG1 ELISA EC50 <0.02 nM.
Molecule B15 gave an EC50 of less than 0.02 nM.
In turn, B16 yielded an EC50 of less than 0.02 nM.

Another test addresses T6, human IGSF11 (VSIG3) expressed on cells. The experiment in a line: FACS, DMS 273 cells with scrambled control siRNA (SC). Background: In flow cytometry, cells or beads pass a laser one at a time.
On to B17, for which the “% binding (FACS heat-map)” value was found to be 5.97%.

The next test shares this target. The experiment in a line: FACS, M579-A2-luc cells with scrambled control siRNA (SC).
B17: the “% binding (FACS heat-map)” value was 1.17%.

The next test shares this target. In words: FACS, DMS 273 cells with IGSF11 siRNA (KD, knock-down control).
For B17, the “% binding (FACS heat-map)” value was found to be 1.6%.

The target is the same in the next test. In words: FACS, M579-A2-luc cells with IGSF11 siRNA (KD, knock-down control).
Take B17: the “% binding (FACS heat-map)” value was 1.3%.

Source of the values: patent publication US20220372138A1 (IOMX THERAPEUTICS, published 2022).
